Assay results from paper PMC7496117, “A zinc finger protein BBX19 interacts with ABF3 to affect drought tolerance negatively in chrysanthemum”.

Target: T1, GST-CmABF3 (Chrysanthemum morifolium, UniProt A0A7T8G3B9 1-415)
T1 sequence: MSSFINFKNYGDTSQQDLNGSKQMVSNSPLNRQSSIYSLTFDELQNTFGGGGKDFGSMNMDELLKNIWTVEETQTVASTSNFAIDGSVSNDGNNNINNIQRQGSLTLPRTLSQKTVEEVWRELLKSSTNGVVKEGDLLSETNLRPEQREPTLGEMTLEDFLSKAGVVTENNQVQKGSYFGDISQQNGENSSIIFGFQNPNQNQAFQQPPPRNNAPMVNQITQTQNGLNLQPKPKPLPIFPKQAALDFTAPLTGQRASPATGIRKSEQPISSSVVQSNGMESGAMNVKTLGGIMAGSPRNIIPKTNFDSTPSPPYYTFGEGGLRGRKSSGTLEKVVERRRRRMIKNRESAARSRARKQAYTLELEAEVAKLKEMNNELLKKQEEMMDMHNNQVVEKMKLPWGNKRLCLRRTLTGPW
Experiment: EMSA; 3 ug protein; cold-probe competition 100-5000x, outcome only in gel; LightShift Chemiluminescent EMSA kit, 20 ul reaction, 3 ug protein; biotin probe 50 nM or 2 nM (Methods); buffer, salt, pH and temperature not stated
Conditions: protein: recombinant; tags: GST (N-terminal, pGEX); chain copies: 2; blunt

B1: proRAB18-probe (CmRAB18 promoter, two ABRE motifs) (dsDNA)
DNA 1: GAAATTAGACACGTACTTTTCAGTGATAACATAAACATACTTACGTGTTC
DNA 2: GAACACGTAAGTATGTTTATGTTATCACTGAAAAGTACGTGTCTAATTTC
B1: binds.
